From article PMC3937519
pKd: −log10 of the molar value.

How the values were obtained:
[1] = target: Vif V25A-CBF-β-Elo B/C complex (HIV-1 NL4.3 | human | not stated) (UniProt Q13951); assay: ITC
[2] = target: Vif H27A-CBF-β-Elo B/C complex (HIV-1 NL4.3 | human | not stated) (UniProt Q13951); assay: ITC
[3] = target: Vif H108A-CBF-β-Elo B/C complex (HIV-1 NL4.3 | human | not stated) (UniProt Q13951); assay: ITC
[4] = target: wild-type Vif-CBF-β-Elo B/C complex (HIV-1 NL4.3 | human | not stated) (UniProt Q13951); assay: ITC
[5] = target: HIV-1 NL4.3 Vif Y30A, recombinant (E. coli) (HIV-1 NL4.3); assay: pull-down
[6] = target: HIV-1 NL4.3 Vif H27A, recombinant (E. coli) (HIV-1 NL4.3); assay: pull-down
[7] = target: HIV-1 NL4.3 Vif H28A, recombinant (E. coli) (HIV-1 NL4.3); assay: pull-down
[8] = target: HIV-1 NL4.3 Vif M29A, recombinant (E. coli) (HIV-1 NL4.3); assay: pull-down

Substance | pKd [1] | pKd [2] | pKd [3] | dH [3] | pKd [4] | dH [4] | percent reduction of Cul5 binding against wild-type Vif [5] | percent reduction of Cul5 binding against wild-type Vif [6] | percent reduction of Cul5 binding against wild-type Vif [7] | percent reduction of Cul5 binding against wild-type Vif [8]
Cul5-NTD (residues 1 to 393, V341R, L345D) (from UniProt Q93034 1-393) (domain or fragment) | 6.29 | 6.18 | 7.44 | -4 kcal/mol | 8.23 | -9 kcal/mol | – | – | – | –
N-terminal Cul5, co-expressed in E. coli (Cul5/Vif pET-Duet) (domain or fragment) | – | – | – | – | – | – | > 60% | > 60% | 20% | > 60%
